Assays:
[1] = molecular target: recombinant full-length H. sapiens CCR4–NOT deadenylase complex (human)
[2] = molecular target: recombinant full-length H. sapiens CCR4–NOT deadenylase complex (human); remark: listed apart in the source
[3] = molecular target: Schizosaccharomyces pombe Ccr4–Not complex with an FITC label on the Not9 subunit (S. pombe) (UniProt P87112); experiment: fluorescence polarisation; fluorescence anisotropy; Puf3 constructs titrated into 25 nM Ccr4–Not with FITC on Not9; 20 mM HEPES pH 8, 100 mM NaCl, 0.5 mM TCEP; quadratic fit; apparent KD
[4] = molecular target: Schizosaccharomyces pombe Ccr4–Not complex, full-length, unlabeled (Not1, Not2, Not3, Not4, Not9, Ccr4, Caf1) (S. pombe) (UniProt P87112)
[5] = molecular target: Schizosaccharomyces pombe Ccr4–Not complex with an FITC label on the Not9 subunit (S. pombe, UniProt P87112 1-2100; P87240 1-306; O13870 1-640; Q92368 1-283; O74874 1-690; O74856 …, fluorescein (FITC label) from a CoA–fluorescein conjugate on the YbbR tag at the N terminus); experiment: FP; apparent

Molecule: PUM1^Δ587 (from UniProt Q14671 588-1186) (domain or fragment)
- fold decrease in stimulation of deadenylation by human CCR4–NOT (in vitro targeted deadenylation assay) [1]: 4 fold
- stimulation of removal of the poly(A) tail by human CCR4–NOT [2]: 10 fold

Molecule: Puf3 variant with residues 53–68 and 217–232 both replaced with a GSN linker (from UniProt O94462 1-52; O94462 69-216; O94462 233-732) (natural protein)
- Kd [3]: 10000 nM

B1: Puf3 variant with residues 217–232 replaced with a GSN linker (natural protein)
chain: MFTAVNSNPNASESISGNSAFNFPSAPVSSLDTNNYGQRRPSLLSGTSPTSSFFNSSMISSNYTFPHGSNKQASLESPVSYSNPIPSLTWLSLDGDSPDSLVSTPTAPSANHHGNPFPNGKQSIKAMPSLVNLQEDSVISKFPNSLEVPFRKRSESTSSSLSGLHSDLRPLKTELYGQLNSECGARFPQTLKSPLTPIGGDSARTVSASTARTSDKTSKPSRHASHSSIGDLTTITQSSISSGSGSFKPSWDGSFDSSLMAHQSYGTSPAFANGNSPTLKNDSSFFGSASVRPTVSPIGTSFRQSLPDISAFGIPKTETNPSEVVAPGTIPISVLPTSNFSAATPANPSLINQNGQEFLQQSRVLYLFHANKQRHFELSDILGNVVLFSTDQHGSRFIQQKLATATEEEREAVFQEIASTSCLQLMMDIFGNYVVQKYFEFGNEKQKQILLSQIKGHVFSLSLQMYGCRVVQKAIEYISPEHQVQLIQELDGHVLDCVCDQNGNHVIQKAIECIDTGHLQFILRALRPQIHVLSAHPYGCRVIQRAIEHCHSERKLIIEELLPHILKLTQDQYGNYVVQHILRTGSESDKKYIFDLMIDHLLFLSCHKFASNVVERCISYISDVDRRRILNKIISEKAENCSILMLMMKDKYANYVIQKLLDASPEEERDLLISYIYPHISVLKKFTYGKHLIMSVERFRQKSISAVPKLASKECK
- stimulation of Ccr4–Not-mediated deadenylation (in vitro targeted deadenylation assay, t1/2) [4]: 2 fold
- Kd [5]: 420 nM

B2: Puf3 variant with residues 53–68 replaced with a GSN linker (natural protein)
chain: MFTAVNSNPNASESISGNSAFNFPSAPVSSLDTNNYGQRRPSLLSGTSPTSSSNKQASLESPVSYSNPIPSLTWLSLDGDSPDSLVSTPTAPSANHHGNPFPNGKQSIKAMPSLVNLQEDSVISKFPNSLEVPFRKRSESTSSSLSGLHSDLRPLKTELYGQLNSECGARFPQTLKSPLTPIGGDSARTVSASTARTSDKFFPRHTRAHSDFWIPATSKPSRHASHSSIGDLTTITQSSISSGSGSFKPSWDGSFDSSLMAHQSYGTSPAFANGNSPTLKNDSSFFGSASVRPTVSPIGTSFRQSLPDISAFGIPKTETNPSEVVAPGTIPISVLPTSNFSAATPANPSLINQNGQEFLQQSRVLYLFHANKQRHFELSDILGNVVLFSTDQHGSRFIQQKLATATEEEREAVFQEIASTSCLQLMMDIFGNYVVQKYFEFGNEKQKQILLSQIKGHVFSLSLQMYGCRVVQKAIEYISPEHQVQLIQELDGHVLDCVCDQNGNHVIQKAIECIDTGHLQFILRALRPQIHVLSAHPYGCRVIQRAIEHCHSERKLIIEELLPHILKLTQDQYGNYVVQHILRTGSESDKKYIFDLMIDHLLFLSCHKFASNVVERCISYISDVDRRRILNKIISEKAENCSILMLMMKDKYANYVIQKLLDASPEEERDLLISYIYPHISVLKKFTYGKHLIMSVERFRQKSISAVPKLASKECK
- fold decrease in stimulation of Ccr4–Not-mediated deadenylation (in vitro targeted deadenylation assay, t1/2) [4]: 2 fold
- Kd [5]: 290 nM

B3: MBP-tagged full-length S. pombe Puf3 (natural protein)
chain: MFTAVNSNPNASESISGNSAFNFPSAPVSSLDTNNYGQRRPSLLSGTSPTSSFFNSSMISSNYTFPHGSNKQASLESPVSYSNPIPSLTWLSLDGDSPDSLVSTPTAPSANHHGNPFPNGKQSIKAMPSLVNLQEDSVISKFPNSLEVPFRKRSESTSSSLSGLHSDLRPLKTELYGQLNSECGARFPQTLKSPLTPIGGDSARTVSASTARTSDKFFPRHTRAHSDFWIPATSKPSRHASHSSIGDLTTITQSSISSGSGSFKPSWDGSFDSSLMAHQSYGTSPAFANGNSPTLKNDSSFFGSASVRPTVSPIGTSFRQSLPDISAFGIPKTETNPSEVVAPGTIPISVLPTSNFSAATPANPSLINQNGQEFLQQSRVLYLFHANKQRHFELSDILGNVVLFSTDQHGSRFIQQKLATATEEEREAVFQEIASTSCLQLMMDIFGNYVVQKYFEFGNEKQKQILLSQIKGHVFSLSLQMYGCRVVQKAIEYISPEHQVQLIQELDGHVLDCVCDQNGNHVIQKAIECIDTGHLQFILRALRPQIHVLSAHPYGCRVIQRAIEHCHSERKLIIEELLPHILKLTQDQYGNYVVQHILRTGSESDKKYIFDLMIDHLLFLSCHKFASNVVERCISYISDVDRRRILNKIISEKAENCSILMLMMKDKYANYVIQKLLDASPEEERDLLISYIYPHISVLKKFTYGKHLIMSVERFRQKSISAVPKLASKECK
- Kd [5]: 160 nM
- Kd [3]: 100 nM

B4: Puf3 residues 158–258, GST–lipoyl tag fusion with no PUM domain (domain or fragment)
chain: SSSLSGLHSDLRPLKTELYGQLNSECGARFPQTLKSPLTPIGGDSARTVSASTARTSDKFFPRHTRAHSDFWIPATSKPSRHASHSSIGDLTTITQSSISS
- Kd [3]: 7000 nM

B5: Puf3 construct spanning residues 109–208 (anisotropy) (domain or fragment)
chain: SANHHGNPFPNGKQSIKAMPSLVNLQEDSVISKFPNSLEVPFRKRSESTSSSLSGLHSDLRPLKTELYGQLNSECGARFPQTLKSPLTPIGGDSARTVSA
- Kd [5]: > 40000 nM
- Kd [3]: > 50000 nM

B6: Puf3 residues 109–258, GST–lipoyl tag fusion with no PUM domain (domain or fragment)
chain: SANHHGNPFPNGKQSIKAMPSLVNLQEDSVISKFPNSLEVPFRKRSESTSSSLSGLHSDLRPLKTELYGQLNSECGARFPQTLKSPLTPIGGDSARTVSASTARTSDKFFPRHTRAHSDFWIPATSKPSRHASHSSIGDLTTITQSSISS
- Kd [3]: 800 nM

B7: 1-158 (protein)
chain: MFTAVNSNPNASESISGNSAFNFPSAPVSSLDTNNYGQRRPSLLSGTSPTSSFFNSSMISSNYTFPHGSNKQASLESPVSYSNPIPSLTWLSLDGDSPDSLVSTPTAPSANHHGNPFPNGKQSIKAMPSLVNLQEDSVISKFPNSLEVPFRKRSESTSQSRVLYLFHANKQRHFELSDILGNVVLFSTDQHGSRFIQQKLATATEEEREAVFQEIASTSCLQLMMDIFGNYVVQKYFEFGNEKQKQILLSQIKGHVFSLSLQMYGCRVVQKAIEYISPEHQVQLIQELDGHVLDCVCDQNGNHVIQKAIECIDTGHLQFILRALRPQIHVLSAHPYGCRVIQRAIEHCHSERKLIIEELLPHILKLTQDQYGNYVVQHILRTGSESDKKYIFDLMIDHLLFLSCHKFASNVVERCISYISDVDRRRILNKIISEKAENCSILMLMMKDKYANYVIQKLLDASPEEERDLLISYIYPHISVLKKFTYGKHLIMSVERFRQKSISAVPKLASKECK
- Kd [5]: ~10000 nM
